From patent publication US20080286287A1 (MURDOCH CHILDRENS RESEARCH INSTITUTE, published 2008)

What was measured:
Human-IGF-I = target: T1, Human-IGF-I (human, UniProt P05019 49-118); experiment: competitive radioligand binding in solution (125I-IGF-I vs unlabeled IGF-I), immunoprecipitation with anti-IGFBP-2, one-site fit
T1 construct: also called IGF-1
From the text: (§1) Table 4 tabulates data showing the effect of mutagenesis on the affinity of IGFBP-2 for the IGFs. The HBD, ₁₇₉PKKLRP₁₈₄, was mutated to ₁₇₉PNNLAP₁₈₄ and the ₂₆₅RGD₂₆₇ domain was mutated to ₂₆₅RGE₂₆₇. Native and mutant IGFBP-2 were purified by IGF-I affinity chromatography and quantified by an IGFBP-2 ELISA or radioimmuno assay (RIA) as described in the Examples. IGF binding affinities of the modified IGFBP-2 mutants were similar to those of native IGFBP-2.
(§2) The impact of these exemplary mutations in IGFBP-2 were tested to see if they affected IGF binding affinity. Native, HBD and RGD-IGFBP-2 (all 2.5 ng) were incubated with either ¹²⁵I-IGF-I or -II (15,000 cpm) in the presence of increasing concentrations of unlabeled IGF-I or -II (0.0025-0.15 nM). Binding was for 2 h at room temperature in 100 μl binding buffer [BB; 50 mM sodium phosphate pH 7.4, 0.1 M NaCl, 0.05% (w/v) NaN3, 0.2% fatty acid free BSA (Sigma, Steinheim, Germany), 0.1% (v/v) Triton X-100]. […] Bound radioactivity in precipitates was quantified in a γ-counter. Each point was measured in quadruplicate. […]

IGF-II = target: T2, IGF-II (UniProt P01344 25-91); experiment: competitive radioligand binding in solution (125I-IGF-II vs unlabeled IGF-II), immunoprecipitation with anti-IGFBP-2, one-site fit
T2 construct: also called unlabeled IGF-II
T2 sequence (P01344 25-91 limits assumed): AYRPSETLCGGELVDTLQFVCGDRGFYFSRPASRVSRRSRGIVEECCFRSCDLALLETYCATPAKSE
From the text: as §1, §2

T1 sequence (P05019 49-118 limits assumed): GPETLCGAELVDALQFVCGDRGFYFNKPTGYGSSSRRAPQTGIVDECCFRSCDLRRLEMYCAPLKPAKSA

Kd (Human-IGF-I): 1450 pM
Kd (IGF-II): 520 pM
B1: HBD-IGFBP-2 mutant (179PKKLRP184 mutated to 179PNNLAP184) (other)
chain: EVLFRCPPCTPERLAACGPPPVAPPAAVAAVAGGARMPCAELVREPGCGCCSVCARLEGEACGVYTPRCGQGLRCYPHPGSELPLQALVMGEGTCEKRRDAEYGASPEQVADNGDDHSEGGLVENHVDSTMNMLGGGGSAGRKPLKSGMKELAVFREKVTEQHRQMGKGGKHHLGLEEPNNLAPPPARTPCQQELDQVLERISTMRLPDERGPLEHLYSLHIPNCDKHGLYNLKQCKMSLNGQRGECWCVNPNTGKLIQGAPTIRGDPECHLFYNEQQEARGVHTQRMQ
notes: Positions are as printed; also called HBD modified IGFBP-2; PCS3
